Experimental data from article PMC2820462, “Inhibition of receptor tyrosine kinase signalling by small molecule agonist of T-cell protein tyrosine phosphatase” (BMC Cancer, 2010).

Molecular target: T1, T-cell protein tyrosine phosphatase, 45 kDa form (TC45) (UniProt P17706-2 1-387)
T1 sequence (looked up): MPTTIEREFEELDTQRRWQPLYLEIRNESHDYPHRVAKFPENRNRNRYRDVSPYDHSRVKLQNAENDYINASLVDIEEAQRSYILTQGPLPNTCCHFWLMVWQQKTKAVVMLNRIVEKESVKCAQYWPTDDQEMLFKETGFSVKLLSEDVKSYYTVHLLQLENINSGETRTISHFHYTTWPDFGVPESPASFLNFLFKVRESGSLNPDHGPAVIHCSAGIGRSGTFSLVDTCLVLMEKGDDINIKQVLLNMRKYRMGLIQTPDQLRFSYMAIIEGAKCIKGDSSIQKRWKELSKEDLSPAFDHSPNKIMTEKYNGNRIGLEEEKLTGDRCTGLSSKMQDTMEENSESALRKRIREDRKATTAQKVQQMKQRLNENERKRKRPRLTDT
Experiment: cell-based or functional assay

Question: For RPLKKKMEK [α1-cyt peptide (α1 cytoplasmic specific sequence lacking the conserved domain, RPLKKKMEK)], which “activation of recombinant TC45 in DiFMUP phosphatase assay by 10 μM α1-cyt peptide” value is on record?
Answer: 2.4 fold
